Assay: yeast display, Sf9 membrane polyspecificity reagent, FACS + sequencing; frameworks hold sequencing errors
Summary of the method: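 Genes from sorted yeast were amplified by colony PCR, read by MiSeq 2 × 250 sequencing and filtered on CDR length. These cells carried a synthetic nanobody library in Saccharomyces cerevisiae BJ5465 and were sorted by FACS into low and high (top ~1%) gates on anti-HA and streptavidin fluorescence. Polyreactivity is labelled according to the gate of origin.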

Row | Sequence | polyreactivity (PSR sort gate)
1 | QVQLVESGGGLVQAGGSLRLSCAASGFTPGNVMGWYRQAPGKERELVAAISWSGDSTYYADSVKGRFTISRDNAKNTVYLQMNSLKPEDTAVYYCAARVVGSYRKTYPYGLYYWGQGTQVTVSS | high polyreactivity
2 | QVQLVESGRGLVQAGGSLRLSCAASGSTLYAYAMGWYRQAPGKESELVAAIRRGGRTNYADSVKGRFTISRDNAKNTVYLQMNSLKPEDTAVYYCAARGSKPYSNRLLDYWGLGTQVTVSS | high polyreactivity
3 | QVQLVESGGGLVQAGGSLRLSCVASARTFFRYAMGWYRQAPGKERELVADITRGGSTYYADSVKGRFTISRDNAKNTVYLQMNSLKPEDTAVYYCNADGRVQRKYDYWGQGTQVTVSS | high polyreactivity
4 | QVQLVESGGGLVQAGGSLRLSCAPSGRIFSWNAMGWYRQAPGKERELVAAISVRGGSTYADSVKGRFTISRDNAKNTVYLQMNSLKPEDTAVYYCAKTYYPYRLGEGQYEYDYWGQGTQVTVSS | low polyreactivity
5 | QVQLVESGGGLVQAGGSLRLSCAASGRILAIYAKGWYRQAPGKERELVAGITYSAGSTYYADSVKGRFTISRDNAKNTVYLQMNSLKPEDTAVYYCAALEYNSHRYGYDYWGQGTQVTVSS | low polyreactivity
6 | QVQLVESGGGLVQAGGSLRLSCAASGITFSFYAMGWYRQAPRKERELVAGITRSGGDTYYADSVKGRFTISRDNAKNTVYLQMNSLKPEDTAVYDCADAWFFYRRQYTFFAGRMDYWGQGTQVTVSS | high polyreactivity
7 | QVQLVESGGGLVQAGGSLRLSCAASGIIFRRYAMGWYRQAPGKERELVAAISSSGGNTYYADSVKGRFTISRDNAKNTVYLQMYSLKPEDTAVYYCAARSQIYYRYRSYGYWGQGTQVTVSS | high polyreactivity
8 | QVQLVESGGGLVQAGGSLRLSCASSGSIFYQNAMGWYRQAPGKEREFVAAIRSSGSSTYYADSVKGRFTISRDNAKNTVYLQMNSLKPEDTAVYYCAAPSSRGQGRNFDYWGQGSQVTVSS | high polyreactivity
9 | QVQLVESGGGLVQAGGSLRLICAASGRIFRYYAMGWYRQAPGKERELVASISWRGGSTYYADSVKGRFTISRDNAKNTVYLQMNSLKPDDTAVYYCNAAPGAFYRWWGFGSDYWGQGTQVTVSS | high polyreactivity
10 | QVQLVESGGGLVQAGGSLRLSCAASGSTFRCYAMGWYRQAPGKERELVAAISRSGGSTYYADSVKGRFTISRDNAKNTVYLQMNSLKPEDTAVYYCNARSSKRSSRGYDYWGQGTQVTVSS | high polyreactivity
11 | QVQLVESGGGLVQAGGSLRLICAASGSTFGIYAMGWFRQAPGKERELVAAISWRGGRTYYADSVKGSFTISRDNAKNNVYLQRNSLKPEDTAVYNCSADYRYLWEGYDYWGQGTQVTVSS | low polyreactivity
12 | QVQLVESGGGLVQAGGSLRLSCAASGLTFYIYAMGWYRQAPGKERELVASITWSTTSTSYADSVKGRFTISRDNAKNTVYLQLKSLKPEDTAVYYCNADVPGYFLYDDSYEYWGQGTQVTVSS | low polyreactivity
13 | QVQLVESGGGLVQAGGSLRLSCAASGYTFYKYAMGWYRQAPGKEREFVADITQSGGSTYYADSVKGRFTISRDNAKNTVYLEMNSLKPEDTAVYYCNAAYSYRPDPKGYDYWGQGTQVTVSS | low polyreactivity
14 | QVQLVESGGWLVQAGGSLRLSCAASGSSFYGYGMGSYRQAPGKERELVAANTGSGDTTYYADSVKGRFTNSRDNEKNTVYLQMNSLKPEDTAVYYCNARWHAEYDYWGQGTQVTVSS | low polyreactivity
15 | QVHLVESGGGLFQAGGSLSISSASSGRTFYWYPMGWYRQAPGKERELVAAITGMGTRTYYADSVKGRFTISRDNAKNTDYLQMNSLKPEDTAVYYCNTRYYGGFDSWGQGTQVTVSS | high polyreactivity
16 | QVQLVESGGGLVQAGGSLRLSCAASGRIFRDYAMGWYRQAPGKERELVAAISLSGGSTYYADSVKGRFTISRDIAKNTVYLQVNSLKPEDTAVYYCAAKYYYGGNGYWGQGTQVNVSS | low polyreactivity
17 | QVQLVESGGGLVQAGGSLRLSCAASGGIFPHYVMGWYRQAPGKERELVAAITWSGGRTYYADSVKGRFTISRDNAKNTVYLQMNSMKPEDTAVYYCAADPFYLTKSGGWGDYWGQGTQVTVSS | low polyreactivity
18 | QVQLVESGGGLVQAGGSLRLSCAASVSTFSTYAMGWYRQAPGKERELVAASTWRGSSTYYADSVKGRFTISRDNAKKTVYLQMNSLKPEDTAVYYCAAEDTFYEYYYWGQGTQVTVSS | high polyreactivity
19 | QVQLVESGGGLVQAGGSLRLSCAASGRTFVTNAMGWYRQAPGKERELVAAISSGDDSTYYADSVKGRFTISRDNAKNTVYLQMNSLKPEDTAVYYCAAEGYYVDYYFYFHGFDYWGQGTQVTVSS | high polyreactivity
20 | QVQLVESGGGLVQAGGSLRLSCAASGSIFSGYVMGWYRQAPGKERELVAAISSGGSTYYADSVKGRFTISRDNAKNTVYLQMNSLKPEDTAVYYCAARSRKYGLLFYYWGQGTQVTVSS | high polyreactivity
21 | QVQLVESGGGIVQAGGSLRVSCAASGTMGWYRQAPGKERELVAAISQSGGSTYYADSVKGRFTISRDNAKNTVYLQMNSLKPEDTAVYYCAVDPGYGHPRRDYWGQGTQVTVSS | low polyreactivity
22 | QVQLVESGGGLVQAGGSLRLSCAASGSTFDIYAMGWYRQAPGKERELVAAIRGRGGSTYYADSVKGRFTISRDNAKNTVSLQMNSLKPEDTAVYYCAAQTKRQRREFGFWGQGTQVTVSS | high polyreactivity

Row | Sequence | polyreactivity (PSR sort gate)
23 | QVQLVESGGGLVQAGGSLRLSCAASGFIFRRNAMGWYRPAPGKERELVAAITKSGGSTYYADSVKGRFTISRDNAKNTVYLQMNSLKPEDTAVYYCAAPYSAKELYYRMDYWGQGTQVTVSS | high polyreactivity
24 | QVQLVESGGGLVQAVGSLRLSCAASGSIFVKYAMGWYRQAPGKERELVAALSRSGGSTYYADSVKGRFTISRDNAKNTVYLQMNSLKPEDTEVYYCAATYYKGMNYWGQGTQVTVSS | high polyreactivity
25 | QVQLVESGGGLVQAGGSLRLSCAASGIIFKYYAMGWYRQAPGKERELVAAISWTGDSTYADSVKGRFTISRDNAKNTVYLQMNSLKPEDTAVYYCAVAFRRVRSLGEGYWGQGTQVTVSS | low polyreactivity
26 | QVQLVESGGGLVQAGGSLRLSCAASGSIFLRYTMGWYRQAPGKETEFVAAITWTADSTYYADSVKGRFTISRDNAKNTVYLQMNSLKPEDTAVYYCAASYSTIWTLYYYWGQGTQVTVSS | low polyreactivity
27 | QVQLVESGGGLVQAGGSLRLSCAASGITLSWYAMGWYRQAPGKERELVAGISGRGGRTYYADSVKGRFTLSRDNAKNTVYLQMNSLKPEDTAVYYCAADSPGYRSYDYWGQGTQVTVSS | high polyreactivity
28 | QVQLVESGGGLVQAGGSLRLSSAASGITFYDYAMGWSRPSPGKERELVAAINSSGVRTYYADSVKGRFTISRDNAKNTVYLQMKSLNPEYTAVYYCAAKLVYGGRYGYWGQGTQVTVSS | high polyreactivity
29 | QVQLVESGGGLVQAGGSLRLSCAASGRIFNQYGMGWYRQAPGKERELVAAIRSGDSTNYADSVKGRFTISRDNAKNTVYLQMNSLKPEDTAVYYCKAVPSQHDEFDYWGQGTQVTVSS | low polyreactivity
30 | QVQLVESGGGLVQAGGSLRLSCAASGRTLYYNPMGWYRQAPGKEREFVAAISYSGGGTYYADSVKGRFTISRDNAKNTVYLQMNSLKPEDTAVYYCNARIRRPYRVTAEYDYWGQGTQVTVSS | high polyreactivity
31 | QVQLVDSGGGLVQAGGSLPLSCAASGSILLPYAMGWYRQAPGKERELVAALSQRGGSTYYADSVKGRFTISRDNAKNTVYLQMNSLKPEDTAVYYCNAVGGEHTPSQAFAGYDYWGQGTQVTVSS | low polyreactivity
32 | QVQLVESGGGLVQAGGSLRLTCAASGSTFIRYTMVWYRQAPGKEREFVATITWSTGTTYYADSVKGRFTISRDNAKYSVYLQMNSLKPEDTAVYYCAAVYYYYTGITYDYWGQGTQVTVSS | high polyreactivity
33 | QVQLVESGGGLVQAGGSLRLSCAASGRIFGVNAMGWYRQAPGKERELVAAIDWSDGSTYYADSVKGRFTISRDNAKNTVYLQMNSLKPEDTAVYYCATDYSYGDYYDDEFPSDDFDYWGQGTQVTVSS | low polyreactivity
34 | QVQLVESGGGLVQAGGSLRLSCAASGITFVRYAMGWYRQAPGKERELVATITRRGGSTYYADSVKGRFTISRDNAKNTVYLQMNSLKPEDTAVYYCAADAYIWLYTDFPAYDYWGQGTHVTVSS | high polyreactivity
35 | QVQLVESGGGLVQAGGSLRISCAASGSTFGDYTMGWYRQAHGKERELVAAITLTGGSTFYADSVKGRFTISRDNAKNTVYLQMNSLKPVDTAVYYCNTDVIRWVGGTWHRYYYWGQGTQVTVSS | low polyreactivity
36 | QVQLVESGGGLVQAGGSLRLSCAASGSIFFRYAMGWYRQAPGKERELVAAISDSGGTTYYADSVKGRFTISRDNAKNTVYLQMNSLKPEDTAVYYCAARFIYYSNRYYRYREFNYWGQGTQVTVSS | high polyreactivity
37 | QVQLVESGGGLVQAGGSHRLSCAASGIIFWRYAMGWYRQAPGKERELVAGITSRGGSTYYADSVKGRFTISRDNAKNTVYLQMNSLKPEDTAVYFCNADWFGQLWWGVDYWGQGTQVTVSS | high polyreactivity
38 | QVQIVESGGGLVQAGGSLRLSCAASGRIFYKNAMGWYRQAPGKERELVAAISNVGSTYYADSVKGRFTISRDNAKTTVYLQMNSLKPEDTAVYYCNKRIYHLFTYDFWGQGTQVTVSS | high polyreactivity
39 | QVQLVESGGGLVQAGGSLRLSCAASGSIFYRYAMGWYSQAPGKERELVAAINNGGGRTYADSVKGRCTISRDNAKNTVYLQMNSLKPEDTAVYYCAARYYRDYRWYTYAYDYWGQGTQVNVSS | high polyreactivity
40 | QVQLVESGGGLVQAGGSLRLSCAASGSIFRPYTMGWYRPAPGKERELVAGITSGGGTYYADSVKGRFTISRDNAKNTVYLQMNSLKPEDTAVYYCAADNWKTRSLVDYWGQGTEVTVSS | high polyreactivity
41 | QVQLVESGGGIVQAGGSLRLSCAASGFIFVANAMGRYRQAPGKERQLVAAISGSGGSTFYADSVKGRFTISRDNAKNTVNLQMNSLKPEDTAGYYCNADAYDYSGYFEYDCWGQGTQETVSS | high polyreactivity
42 | QVQLVESGGGLVQAGGSLRLSCAASGRIFGYYGMGWYRPAPGKERELVAAITYRGGSTYYADSVKGRFTISRDNAKNTVYLQMNSLKPEDTAVYYCAADGYSHYPYLYDYWGQGTQVTVSS | low polyreactivity
43 | QVQLVESGGGLVQAGGSLRLSCAASGSTFNAYAMGWNRQAPGKERELVAVISSSGGRTYYADSVKGRFTISRDNAKNTVYLQMNSLKPEDTAVYYCNADVKYRYNHWGQGTQVTVSS | high polyreactivity

Source: the nanobody polyreactivity screen of Harvey et al. (2022)
